Experimental findings from PMC9927353 are described below.

In the series the target is FleQ (Pseudomonas aeruginosa PAO1) (UniProt G3XCV0). Description: EMSA.
FleQ (Pseudomonas aeruginosa PAO1), sequence (G3XCV0 whole entry): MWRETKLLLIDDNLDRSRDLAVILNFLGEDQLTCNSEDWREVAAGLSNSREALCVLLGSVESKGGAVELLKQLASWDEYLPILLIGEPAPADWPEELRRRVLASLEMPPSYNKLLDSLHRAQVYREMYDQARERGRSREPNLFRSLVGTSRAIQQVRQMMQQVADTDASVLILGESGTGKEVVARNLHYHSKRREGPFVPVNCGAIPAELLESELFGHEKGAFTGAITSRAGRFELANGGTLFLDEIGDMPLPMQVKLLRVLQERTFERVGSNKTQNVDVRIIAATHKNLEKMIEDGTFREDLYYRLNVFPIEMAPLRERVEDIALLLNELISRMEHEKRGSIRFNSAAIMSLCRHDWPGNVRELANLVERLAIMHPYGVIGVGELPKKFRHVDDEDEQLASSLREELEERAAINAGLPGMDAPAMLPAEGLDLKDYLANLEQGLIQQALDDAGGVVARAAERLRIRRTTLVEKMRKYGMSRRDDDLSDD

With “GAGTTGCAGCCTTTCCTTGCCGTCAGCCATGGCGCACCTCCGGACGAGGGTACGCGCAGGGGTCTTCGAGATGGCTCATTATTCTTGTCTCCACTCTGTCAGAGGCCGTGTCTTGCGCACGGATGAGCGGATTATTGGCGGCGGATGTAAGACGCCGTTGAACGCGCGGATCGAAGATGTAAAAAGCTGTAAGGAAGTTGTTCGCCGCG (double strand) [lysP promoter (4981)]”, the binding result was “binds”.
